Source: US9850504B2, “Method for the enzymatic production of 3-buten-2-one” (Scientist of Fortune S.A., priority 2013, dated 2017)

Assays:
[1] = molecular target: T1, Secondary alcohol dehydrogenase from Rhodococcus ruber, SEQ ID NO: 12 (Uniprot Q8KLT9) (Rhodococcus ruber, UniProt Q8KLT9); assay: Kinetic parameters of the reduction of 3-buten-2-one to 3-buten-2-ol; assay type: biochemical; conditions: 0-40 mM 3-buten-2-one, 40 mM NADPH, pH 7.5, 37° C
T1 sequence (Q8KLT9 1-346): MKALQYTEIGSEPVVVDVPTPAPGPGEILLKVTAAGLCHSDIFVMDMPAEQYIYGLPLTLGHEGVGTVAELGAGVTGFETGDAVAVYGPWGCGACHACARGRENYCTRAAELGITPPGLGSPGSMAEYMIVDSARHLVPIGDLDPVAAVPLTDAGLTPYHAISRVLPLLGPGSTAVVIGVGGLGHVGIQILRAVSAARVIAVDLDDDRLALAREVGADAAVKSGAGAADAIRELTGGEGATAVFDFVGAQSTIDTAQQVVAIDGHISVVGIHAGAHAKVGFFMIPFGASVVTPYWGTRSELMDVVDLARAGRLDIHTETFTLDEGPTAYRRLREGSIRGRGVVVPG
Experimental: (§1) The assays were incubated for various time periods (0, 20, 40, 60 120 and 240 min) with shaking at 37° C. […] The reaction products were then extracted with an equal volume of ethyl acetate. 150 μl of the upper ethyl acetate phase was transferred into a clean vial for HPLC analysis. Commercial 3-buten-2-ol (Sigma) was used as reference. […] The mobile phase consisted of 98:2 (v/v) H2O/acetonitrile containing 8.4 mM sulfuric acid. Retention time of 3-buten-2-ol and 3-buten-2-one under these conditions was 3.9 and 5.4 min, respectively.
(§2) The studied enzymatic reaction was carried out under the following conditions at 37° C.:
1 mg/ml alcohol dehydrogenase from R. ruber.
(§3) Reaction volume was 200 μl.
(§4) The assays were incubated for 0, 10, 20, 40, 60 and 120 min with shaking at 37° C. The formation of 3-buten-2-ol was quantified according to the protocol described in Example 8.

[2] = molecular target: 3-hydroxypropionyl-CoA dehydratase from Sulfolobus tokodaii, SEQ ID NO: 3 (Uniprot F9VNG3) (Sulfurisphaera tokodaii, UniProt F9VNG3); assay: Kinetic parameters of the dehydration of 4-hydroxy-2-butanone to 3-buten-2-one; assay type: biochemical; conditions: 0-300 mM 4-hydroxy-2-butanone, 20 mM MgCl2, pH 7.5, 37° C
Experimental: Each assay was started with the addition of a specific enzyme at a final concentration of 4 mg/ml. Control assays were performed in which either no enzyme was added, or no substrate was added. Test tubes were incubated for 23 hours with shaking at 37° C. Reaction products were extracted with an equal volume of ethyl acetate and then analyzed by HPLC. Commercial 3-buten-2-one (Sigma) was used as reference. […] The mobile phase consisted of 98:2 (v/v) H2O/Acetonitrile containing 8.4 mM sulfuric acid. Retention time of 3-buten-2-one under these conditions was 5.4 min.
Kinetic parameters of the reaction were determined for purified recombinant 3-hydroxypropionyl-CoA dehydratase from Sulfolobus tokodaii under the following conditions:
4 mg/ml 3-Hydroxypropionyl-CoA dehydratase S. tokodaii
Test tubes were incubated for 0, 20, 60, 120 and 180 min with shaking at 37° C. The formation of 3-buten-2-one was quantified using commercial 3-buten-2-one according to the procedure described in Example 4.

[3] = molecular target: linalool dehydratase-isomerase from Castellaniella defragrans (formerly Alcaligenes defragrans), SEQ ID NO: 19 (Castellaniella defragrans, UniProt E1XUJ2); assay: 1,3-butadiene production from 3-buten-2-ol (GC/FID); assay type: biochemical; conditions: 0-80 mM 3-buten-2-ol, cell lysate with recombinant enzyme, 2 mM DTT, pH 7.5, 37° C, 1-22 hours
Description: The sequence of linalool dehydratase-isomerase inferred from the genome of Castellaniella defragrans (formerly Alcaligenes defragrans) was generated by oligonucleotide concatenation to fit the codon usage of E. coli. A stretch of 6 histidine codons was inserted after the methionine initiation codon to provide an affinity tag for purification. The gene thus synthesized was cloned in a pET25b(+) expression vector (the vector was constructed by GeneArt AG). Competent E. coli BL21(DE3) cells (Novagen) were transformed with this vector according to the heat shock procedure. As negative control, E. coli BL21(DE3) strain was transformed with empty vector. The transformed cells were grown with shaking (160 rpm) on ZYM-5052 auto-induction medium (Studier F W, Prot. Exp. Pur. 41 (2005), 207-234) for 6 hours at 37° C. and protein expression was continued at 18° C. overnight (approximately 12 hours). The cells were collected by centrifugation at 4° C., 10,000 rpm for 20 min and the pellets were frozen at −80° C.
The pellets from 100 ml of culture cells were thawed on ice and resuspended in 4 ml of 50 mM Tris-HCl pH 7.5. […] Protein concentration was determined using the Bradford method (Biorad). […]
0.25 ml of cell lysate containing recombinant linalool dehydratase-isomerase was added to 0.5 ml of reaction mixture. […] 1,3-butadiene production was analyzed by GC/FID procedure. […]

[4] = substrate: C=CC(C)=O; assay: Kinetic parameters of the reduction of 3-buten-2-one to 3-buten-2-ol; assay type: biochemical, Lactobacillus kefiri; conditions: other: 0-40 mM 3-buten-2-one, 40 mM NADPH, pH 7.5, 37° C
Experimental: as §1, §2
1 mg/ml alcohol dehydrogenase from L. kefiri.
as §3, §4

[5] = substrate: C=CC(C)=O; assay: Enzyme-catalyzed reduction of 3-buten-2-one to 3-buten-2-ol, HPLC-based; assay type: biochemical, Thermoanaerobium brockii; conditions: other: 0-40 mM 3-buten-2-one, 40 mM NADPH, 0.1 mM ZnCl2, pH 7.5, 37° C
Experimental: as §2
1 mg/ml alcohol dehydrogenase from Th. brockii
as §3, §1

[6] = substrate: CC(=O)CC(=O)SCCNC(=O)CCNC(=O)[C@H](O)C(C)(C)COP(=O)(O)OP(=O)(O)OC[C@H]1O[C@@H](n2cnc3c(N)ncnc32)[C@H](O)[C@@H]1OP(=O)(O)O; assay: purified protein, by the assay type; conditions: other: acetoacetyl-CoA variable (0-32 mM), NADPH 60 mM, pH 7.5, 37° C

linalool dehydratase-isomerase from Castellaniella defragrans (formerly Alcaligenes defragrans), SEQ ID NO: 19, sequence (E1XUJ2 27-397): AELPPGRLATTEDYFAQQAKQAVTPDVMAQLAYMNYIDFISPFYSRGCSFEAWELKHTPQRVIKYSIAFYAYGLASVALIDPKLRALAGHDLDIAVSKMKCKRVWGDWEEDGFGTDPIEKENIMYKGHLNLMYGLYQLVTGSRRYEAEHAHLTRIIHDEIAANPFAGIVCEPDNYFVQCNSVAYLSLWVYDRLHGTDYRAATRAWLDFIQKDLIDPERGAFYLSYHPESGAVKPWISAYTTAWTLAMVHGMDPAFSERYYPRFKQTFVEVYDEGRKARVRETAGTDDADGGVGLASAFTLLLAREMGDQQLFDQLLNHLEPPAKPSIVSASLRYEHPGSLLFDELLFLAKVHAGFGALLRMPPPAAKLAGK
3-hydroxypropionyl-CoA dehydratase from Sulfolobus tokodaii, SEQ ID NO: 3 (Uniprot F9VNG3), sequence (F9VNG3 1-257): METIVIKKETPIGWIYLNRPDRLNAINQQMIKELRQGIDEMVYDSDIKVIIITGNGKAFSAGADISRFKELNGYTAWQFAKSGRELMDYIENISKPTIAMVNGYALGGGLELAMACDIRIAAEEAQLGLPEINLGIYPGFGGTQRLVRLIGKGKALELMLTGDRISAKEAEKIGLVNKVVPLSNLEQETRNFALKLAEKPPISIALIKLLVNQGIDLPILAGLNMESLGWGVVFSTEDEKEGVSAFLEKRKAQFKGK

How did the kcat [1] turn out when `C=CC(C)=O` [3-buten-2-one] was run?
Its kcat is “at least 0.03 s^−1”.

Which kcat [2] does the source give for `CC(=O)CCO` [4-hydroxy-2-butanone] here?
The kcat was 0.0075 s⁻¹.

Which turnover number [3] does the source give for `C=CC(C)O` (centres unmarked) [3-buten-2-ol] here?
The turnover number was “about 10^−4 s^−1 substrate molecule per enzyme active site”.

B1: R-specific alcohol dehydrogenase from Lactobacillus kefiri, SEQ ID NO: 17 (Uniprot Q6WVP7) (Lentilactobacillus kefiri) (protein)
chain: MTDRLKGKVAIVTGGTLGIGLAIADKFVEEGAKVVITGRHADVGEKAAKSIGGTDVIRFVQHDASDEAGWTKLFDTTEEAFGPVTTVVNNAGIAVSKSVEDTTTEEWRKLLSVNLDGVFFGTRLGIQRMKNKGLGASIINMSSIEGFVGDPTLGAYNASKGAVRIMSKSAALDCALKDYDVRVNTVHPGYIKTPLVDDLEGAEEMMSQRTKTPMGHIGEPNDIAWICVYLASDESKFATGAEFVVDGGYTAQ
Which Km [4] does the source give for B1 here?
Its Km is 19 mM.

What about the kcat [4] of the same molecule?
The kcat was 4 s⁻¹.

B2: Alcohol dehydrogenase from Thermoanaerobacter brockii (Thermoanaerobium brockii), SEQ ID NO: 13 (Uniprot P14941) (Thermoanaerobacter brockii) (protein)
chain: MKGFAMLSIGKVGWIEKEKPAPGPFDAIVRPLAVAPCTSDIHTVFEGAIGERHNMILGHEAVGEVVEVGSEVKDFKPGDRVVVPAITPDWRTSEVQRGYHQHSGGMLAGWKFSNVKDGVFGEFFHVNDADMNLAHLPKEIPLEAAVMIPDMMTTGFHGAELADIELGATVAVLGIGPVGLMAVAGAKLRGAGRIIAVGSRPVCVDAAKYYGATDIVNYKDGPIESQIMNLTEGKGVDAAIIAGGNADIMATAVKIVKPGGTIANVNYFGEGEVLPVPRLEWGCGMAHKTIKGGLCPGGRLRMERLIDLVFYKRVDPSKLVTHVFRGFDNIEKAFMLMKDKPKDLIKPVVILA
How did the Km [5] turn out when B2 was run?
The Km was 100 mM.

And the kcat [5]?
Its kcat is 0.5 s⁻¹.

B3: Short chain alcohol dehydrogenase-like protein from Hahella chejuensis, SEQ ID NO: 11 (Uniprot Q2SCE0) (Hahella chejuensis KCTC 2396) (protein)
chain: MNYFVTGGTGFIGRFLVPKLLKRGGTVYLLVREASLPKLDELRERWNASDEQVVGVVGDLAQPMLGVSEKDAAMLRGKVGHFFHLAAIYDMQASAESQEQANIEGTRNAVKLADSLKAACFHHVSSIAAAGLYRGIFREDMFEEAEKLDNPYLRTKHESEKVVREECQTPWRVYRPGMVVGHSKTGEIDKIDGPYYFFKLIQKLRSALPQWMPTVGLEGGRINIVPVDFVVDAMDHIAHAEGEDGKCFHLTDPDPYKVGEILNIFAEAGHAPKMAMRIDARMFGFIPPMIRQGIARLPPVQRMKNAVLNDLGIPDEVMSFINYPTRFDNRETERLLKGTAIAVPRLQDYSPAIWDYWERHLDPDLHKDRTLRGAVEGRVCVITGATSGIGLSAARKLAEAGAKVVIAARTLEKLQEVKKELEELGGEVYEYSVDLSDLEDCDRFVANVLKDLGHVDVLVNNAGRSIRRSIQHAFDRFHDFERTMQLNYFGSLRLIMGFAPSMLERRRGHIVNISSIGVLTNAPRFSAYVASKAALDAFSRCAAAEFSDKNVTFTTINMPLVRTPMISPTKIYDSVPTLTPEEAADLVAEAIIHRPKRIATRLGVFAQVLHSMAPKFSEIIMNTGFKMFPDSSAATGGKDGEKPKVSTEQVAFAAIMRGIHW
Which Km [6] does the source give for B3 here?
Its Km is 5 mM.

And the kcat [6]?
The kcat was 0.07 s⁻¹.

B4: Short-chain dehydrogenase/reductase (Fatty alcohol forming acyl-CoA reductase) from Marinobacter aquaeolei VT8, SEQ ID NO: 7 (Uniprot A1U3L3) (Marinobacter … (protein)
chain: MNYFLTGGTGFIGRFLVEKLLARGGTVYVLVREQSQDKLERLRERWGADDKQVKAVIGDLTSKNLGIDAKTLKSLKGNIDHVFHLAAVYDMGADEEAQAATNIEGTRAAVQAAEAMGAKHFHHVSSIAAAGLFKGIFREDMFEEAEKLDHPYLRTKHESEKVVREECKVPFRIYRPGMVIGHSETGEMDKVDGPYYFFKMIQKIRHALPQWVPTIGIEGGRLNIVPVDFVVDALDHIAHLEGEDGNCFHLVDSDPYKVGEILNIFCEAGHAPRMGMRIDSRMFGFIPPFIRQSIKNLPPVKRITGALLDDMGIPPSVMSFINYPTRFDTRELERVLKGTDIEVPRLPSYAPVIWDYWERNLDPDLFKDRTLKGTVEGKVCVVTGATSGIGLATAEKLAEAGAILVIGARTKETLDEVAASLEAKGGNVHAYQCDFSDMDDCDRFVKTVLDNHGHVDVLVNNAGRSIRRSLALSFDRFHDFERTMQLNYFGSVRLIMGFAPAMLERRRGHVVNISSIGVLTNAPRFSAYVSSKSALDAFSRCAAAEWSDRNVTFTTINMPLVKTPMIAPTKIYDSVPTLTPDEAAQMVADAIVYRPKRIATRLGVFAQVLHALAPKMGEIIMNTGYRMFPDSPAAAGSKSGEKPKVSTEQVAFAAIMRGIYW
How did the Km [6] turn out when B4 was run?
Its Km is 8 mM.

And the kcat [6]?
The kcat was 0.1 s⁻¹.
